B1: copper chaperone for SOD1 (hCCS), wild-type (natural protein, UniProt O14618 1-274, looked up)
chain: MASDSGNQGTLCTLEFAVQMTCQSCVDAVRKSLQGVAGVQDVEVHLEDQMVLVHTTLPSQEVQALLEGTGRQAVLKGMGSGQLQNLGAAVAILGGPGTVQGVVRFLQLTPERCLIEGTIDGLEPGLHGLHVHQYGDLTNNCNSCGNHFNPDGASHGGPQDSDRHRGDLGNVRADADGRAIFRMEDEQLKVWDVIGRSLIIDEGEDDLGRGGHPLSKITGNSGERLACGIIARSAGLFQNPKQICSCDGLTIWEERGRPIAGKGRKESAQPPAHL
notes: copper chaperone for SOD1 (hCCS), wild type; Desalted into ligand-free, nitrogen-purged buffer

Tests used:
[1] = target: B1; test: SEC; C57A/C146A SOD1 with or without ebselen (25 uM SOD1, 100 uM ebselen, 3 h, 20 C) and hCCS; complex formed with 250 pmol of both SOD1 and hCCS; conditions: both partners purified
[2] = target: the molecule itself; test: as above

Binder | binding result [1] | stoichiometry N [2]
artificial disulphide knockout SOD1 mutant C57A/C146A (enzyme, superoxide dismutase-1 (SOD1), C57A/C146A; also called ebselen-free SOD1; source: E. coli BL21 (DE3), purified (diethylaminoethyl cellulose); treated with DMSO) not shown | binds | 
B1 |  | 2

Source: article PMC5923229, “The cysteine-reactive small molecule ebselen facilitates effective SOD1 maturation” (Nature Communications, 2018)
